Measurements: patent publication US20260242436A1 (HANMI PHARM, published 2026)
Where a chain is given by its changes, count along the chain named.

B1: interleukin-2 analog 20 (ligand)
chain: PTSSSTKKTQLQLEHLLLDLQMILNGINNYKNPKLTAMLTKKFYMPKKATELKHLQCLEEELKPLEEVLNLAQSKNFHLRPRDVVSNINVFVLELKGSETTFMCEYADETATIVEFLNRWITFSQSIISTLT
B2: interleukin-2 analog 12 (ligand)
chain: B1 chain with V84L, V85I, F91I
B3: interleukin-2 analog 52 (ligand)
chain: B1 chain with L79F, R80D, V84L, V85I
B4: interleukin-2 analog 19 (ligand)
chain: B1 chain with R80D, V84L, V85I
B5: interleukin-2 analog 21 (ligand)
chain: B1 chain with L79F, R80D
B6: interleukin-2 analog 53 (ligand)
chain: B1 chain with L79F, R80D, D83E, V84L, V85I
B7: interleukin-2 analog 15 (ligand)
chain: B1 chain with D83E, V84L, V85I, F91I
B8: interleukin-2 analog 99 (ligand)
chain: B1 chain with K41F, L79F, R80E, V84L
B9: interleukin-2 analog 35 (ligand)
chain: B1 chain with K41F, V84L, V85I, F91I, L93F, L95F
B10: interleukin-2 analog 91 (ligand)
chain: B1 chain with A37R, K41F, E60Q, L79F, R80E
B11: interleukin-2 analog 102 (ligand)
chain: B1 chain with A37R, K41F, L79F, R80E, F91I
B12: interleukin-2 analog 105 (ligand)
chain: B1 chain with L17R, Q21E, A37R, K41F, E67D, L79F, R80E
B13: interleukin-2 analog 100 (ligand)
chain: B1 chain with A37R, K41F, L79F, R80E, V84Y
B14: interleukin-2 analog 95 (ligand)
chain: B1 chain with A37R, K41F, V68G, L79F, R80E
B15: interleukin-2 analog 93 (ligand)
chain: B1 chain with A37R, K41F, L79F, R80E, D83E, V90T
B16: interleukin-2 analog 104 (ligand)
chain: B1 chain with L17R, Q21E, A37R, K41F, E60D, L79F, R80E
B17: interleukin-2 analog 97 (ligand)
chain: B1 chain with K41F, L79F, R80D, V84L, V85I
B18: interleukin-2 analog 17 (ligand)
chain: B1 chain with V84L, V85I, V90T, F91I
B19: interleukin-2 analog 92 (ligand)
chain: B1 chain with A37R, K41F, L79F, R80E, V90T
B20: interleukin-2 analog 103 (ligand)
chain: B1 chain with L17R, Q21E, K41F, L79F, R80E
B21: interleukin-2 analog 98 (ligand)
chain: B1 chain with K41F, L79F, R80E, V85I
B22: interleukin-2 analog 88 (ligand)
chain: B1 chain with A37R, K41F, E60D, L79F, R80E
B23: interleukin-2 analog 101 (ligand)
chain: B1 chain with A37R, K41F, L79F, R80E, V84L, V85A
B24: interleukin-2 analog 96 (ligand)
chain: B1 chain with A37R, K41F, V68G, Q73A, L79F, R80E

target: T1, interleukin-2 alpha receptor (SYMANSIS, #4102H) to which a human immunoglobulin Fc region was linked (UniProt P01589 22-213, limits assumed); experiment: SPR (Biacore T200); receptor-Fc captured on anti-human Ig CM5 chip
T1 construct: Bought receptor-Fc, captured on anti-human immunoglobulin antibody; also called IL-2Rα; CD25; not shown: human immunoglobulin Fc region
T1 sequence (looked up): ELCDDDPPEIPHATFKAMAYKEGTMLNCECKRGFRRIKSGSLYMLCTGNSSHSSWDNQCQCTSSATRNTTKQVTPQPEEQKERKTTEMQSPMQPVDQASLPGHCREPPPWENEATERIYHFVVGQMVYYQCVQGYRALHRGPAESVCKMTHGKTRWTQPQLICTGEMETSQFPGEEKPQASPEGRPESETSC

binding result | Binder
no binding | B1
no binding | B2
no binding | B3
no binding | B4
no binding | B5
no binding | B6
no binding | B7

target: T2, interleukin-2 beta receptor (SYMANSIS, #4122H) to which a human immunoglobulin Fc region was linked (UniProt P14784 27-239, limits assumed); experiment: SPR (Biacore T200); receptor-Fc captured on anti-human Ig CM5 chip, analog flowed; relative to analog 1 = 100%
T2 construct: Bought receptor-Fc, captured on anti-human immunoglobulin antibody; also called IL-2Rβ; CD122; not shown: human immunoglobulin Fc region
T2 sequence (looked up): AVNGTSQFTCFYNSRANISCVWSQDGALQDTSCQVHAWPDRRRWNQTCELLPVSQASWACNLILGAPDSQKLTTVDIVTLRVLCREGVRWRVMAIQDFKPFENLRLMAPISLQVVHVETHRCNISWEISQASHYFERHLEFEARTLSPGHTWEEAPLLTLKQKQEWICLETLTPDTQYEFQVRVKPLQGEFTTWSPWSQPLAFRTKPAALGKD
Description: (§1) In order to measure the binding affinities of the interleukin-2 analogs obtained in Example 4 for each of interleukin-2 alpha and beta receptors, surface plasmon resonance (SPR, BIACORE T200, GE Healthcare) was used. The binding affinities of the prepared analogs for the alpha and beta receptors were measured, and the binding affinity of each of the prepared analogs was compared with that of interleukin-2 analog 1 (aldesleukin).
(§2) First, an anti-human immunoglobulin antibody (Abcam, #ab97221) was immobilized to a CM5 chip (GE healthcare) to about 5,000 resonance unit (RU) through amine coupling, and then the interleukin-2 alpha receptor ([…], #4102H) or interleukin-2 beta receptor ([…], #4122H), to each of which a human immunoglobulin Fc region was linked, was bound to the immunoglobulin antibody using an antigen-antibody binding reaction and thus finally immobilized. Thereafter, the recombinant interleukin-2 analog prepared above was diluted with HBS-P+ buffer (Cytiva, BR100671) to various concentrations by serial dilution, and the diluted samples were allowed to flow through CM5 chips, to which the interleukin-2 receptors were finally immobilized, to measure the binding affinity of each interleukin-2 receptor. […] Upon the completion of the measurement, the binding affinity of the receptor was evaluated according to the 1:1 binding fitting model in the Biaevaluation program.

Relative binding affinity (%) | Binder
156 | B1
1510 | B8
233 | B9
7360 | B10
4450 | B11
166 | B2
26800 | B12
3820 | B3
2530 | B13
17.1 | B14
455 | B4
14100 | B5
697 | B15
25400 | B16
691 | B6
3020 | B17
9.4 | B18
1510 | B19
13100 | B20
11100 | B21
13900 | B22
98.1 | B7
113 | B23
229 | B24

target: T1, interleukin-2 alpha receptor (SYMANSIS, …); experiment: as above
Description: as §1, §2

Relative binding affinity (%) | Binder
19.9 | B8
31.7 | B9
7.9 | B10
151 | B11
247 | B12
29.1 | B13
10.7 | B14
92.8 | B15
122 | B16
18.8 | B17
29.6 | B18
97.3 | B19
6.1 | B20
7.7 | B21
102 | B22
24.7 | B23
14.9 | B24
